Measurements: article PMC3472523 (2012)
Positions of bridges follow the written chain, without caps; N, C: chain ends. fluorescein = fluorescein, an N-terminal fluorescent label

T1: Mcl-1 (Mus musculus, UniProt P97287)
T1 chain: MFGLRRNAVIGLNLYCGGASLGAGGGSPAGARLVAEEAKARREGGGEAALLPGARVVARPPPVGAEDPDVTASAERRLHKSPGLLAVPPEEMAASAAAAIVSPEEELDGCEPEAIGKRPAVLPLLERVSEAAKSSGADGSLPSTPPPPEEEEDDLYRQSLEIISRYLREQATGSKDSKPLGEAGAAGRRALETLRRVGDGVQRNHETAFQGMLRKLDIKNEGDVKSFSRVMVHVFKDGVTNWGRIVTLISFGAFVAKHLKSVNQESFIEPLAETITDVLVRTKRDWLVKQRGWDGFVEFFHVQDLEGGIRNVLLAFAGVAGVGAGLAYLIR


The binders below were run against Bcl-xL (Homo sapiens, UniProt Q07817) (assay: fluorescence polarization).
Chain of Bcl-xL (Q07817 whole entry): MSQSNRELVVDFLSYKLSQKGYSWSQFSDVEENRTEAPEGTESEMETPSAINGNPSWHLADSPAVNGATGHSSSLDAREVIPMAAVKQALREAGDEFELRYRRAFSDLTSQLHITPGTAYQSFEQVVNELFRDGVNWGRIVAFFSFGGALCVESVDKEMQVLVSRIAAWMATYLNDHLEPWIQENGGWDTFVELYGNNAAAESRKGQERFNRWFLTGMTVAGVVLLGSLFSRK

Kd	Binder
> 1000 nM	fluorescein-AACLRRIGDCVNLRQKLLN-NH2 (linker 3-10 via biphenyl) [Fl-1 (Bph-cross-linked Noxa peptide 1)]

Target: T1, Mcl-1
Test: competitive fluorescence polarization

Binder	Ki
AACLRAIGDCVNLAQALLN (HELM PEPTIDE1{[ac].A.A.[dC].L.R.A.I.G.D.C.V.N.L.A.Q.A.L.L.N.[am]}|CHEM1{[c1cc(-c2ccc(C[*:2])cc2)ccc1C[*:1]]}$PEPTIDE1,CHEM1,4:R3-1:R1|PEPTIDE1,CHEM1,11:R3-1:R2$$$V2.0; SMILES CC[C@H](C)[C@@H]1NC(=O)[C@H](C)NC(=O)[C@H](CCCNC(=N)N)NC(=O)[C@H](CC(C)C)NC(=O)[C@H](NC(=O)[C@H](C)NC(=O)[C@H](C)NC(C)=O)CSCc2ccc(cc2)-c2ccc(cc2)CSC[C@@H](C(=O)N[C@H](C(=O)N[C@@H](CC(N)=O)C(=O)N[C@@H](CC(C)C)C(=O)N[C@@H](C)C(=O)N[C@@H](CCC(N)=O)C(=O)N[C@@H](C)C(=O)N[C@@H](CC(C)C)C(=O)N[C@@H](CC(C)C)C(=O)N[C@@H](CC(N)=O)C(N)=O)C(C)C)NC(=O)[C@H](CC(=O)O)NC(=O)CNC1=O) [Noxa peptide 5]	29 nM
AACLRAIGDCVNLAQKLLN (HELM PEPTIDE1{[ac].A.A.[dC].L.R.A.I.G.D.C.V.N.L.A.Q.K.L.L.N.[am]}|CHEM1{[c1cc(-c2ccc(C[*:2])cc2)ccc1C[*:1]]}$PEPTIDE1,CHEM1,4:R3-1:R1|PEPTIDE1,CHEM1,11:R3-1:R2$$$V2.0; SMILES CC[C@H](C)[C@@H]1NC(=O)[C@H](C)NC(=O)[C@H](CCCNC(=N)N)NC(=O)[C@H](CC(C)C)NC(=O)[C@H](NC(=O)[C@H](C)NC(=O)[C@H](C)NC(C)=O)CSCc2ccc(cc2)-c2ccc(cc2)CSC[C@@H](C(=O)N[C@H](C(=O)N[C@@H](CC(N)=O)C(=O)N[C@@H](CC(C)C)C(=O)N[C@@H](C)C(=O)N[C@@H](CCC(N)=O)C(=O)N[C@@H](CCCCN)C(=O)N[C@@H](CC(C)C)C(=O)N[C@@H](CC(C)C)C(=O)N[C@@H](CC(N)=O)C(N)=O)C(C)C)NC(=O)[C@H](CC(=O)O)NC(=O)CNC1=O) [Noxa peptide 4]	28 nM
AACLRRIGDCVNLRQKLLN (HELM PEPTIDE1{[ac].A.A.[dC].L.R.R.I.G.D.C.V.N.L.R.Q.K.L.L.N.[am]}|CHEM1{[c1cc(-c2ccc(C[*:2])cc2)ccc1C[*:1]]}$PEPTIDE1,CHEM1,4:R3-1:R1|PEPTIDE1,CHEM1,11:R3-1:R2$$$V2.0; SMILES CC[C@H](C)[C@@H]1NC(=O)[C@H](CCCNC(=N)N)NC(=O)[C@H](CCCNC(=N)N)NC(=O)[C@H](CC(C)C)NC(=O)[C@H](NC(=O)[C@H](C)NC(=O)[C@H](C)NC(C)=O)CSCc2ccc(cc2)-c2ccc(cc2)CSC[C@@H](C(=O)N[C@H](C(=O)N[C@@H](CC(N)=O)C(=O)N[C@@H](CC(C)C)C(=O)N[C@@H](CCCNC(=N)N)C(=O)N[C@@H](CCC(N)=O)C(=O)N[C@@H](CCCCN)C(=O)N[C@@H](CC(C)C)C(=O)N[C@@H](CC(C)C)C(=O)N[C@@H](CC(N)=O)C(N)=O)C(C)C)NC(=O)[C@H](CC(=O)O)NC(=O)CNC1=O) [Noxa peptide 2]	54 nM
AACLRRIGDCVNLRQKLLN (HELM PEPTIDE1{[COC(=O)[*:2]].[meA].A.[dC].L.R.R.I.G.D.C.V.N.L.R.Q.K.L.L.N.[am]}|CHEM1{[c1cc(-c2ccc(C[*:2])cc2)ccc1C[*:1]]}$PEPTIDE1,CHEM1,4:R3-1:R1|PEPTIDE1,CHEM1,11:R3-1:R2$$$V2.0; SMILES CC[C@H](C)[C@@H]1NC(=O)[C@H](CCCNC(=N)N)NC(=O)[C@H](CCCNC(=N)N)NC(=O)[C@H](CC(C)C)NC(=O)[C@H](NC(=O)[C@H](C)NC(=O)[C@H](C)N(C)C(=O)OC)CSCc2ccc(cc2)-c2ccc(cc2)CSC[C@@H](C(=O)N[C@H](C(=O)N[C@@H](CC(N)=O)C(=O)N[C@@H](CC(C)C)C(=O)N[C@@H](CCCNC(=N)N)C(=O)N[C@@H](CCC(N)=O)C(=O)N[C@@H](CCCCN)C(=O)N[C@@H](CC(C)C)C(=O)N[C@@H](CC(C)C)C(=O)N[C@@H](CC(N)=O)C(N)=O)C(C)C)NC(=O)[C@H](CC(=O)O)NC(=O)CNC1=O) [Noxa peptide 6]	32 nM
AACLRAIGDCVNLRQKLLN (HELM PEPTIDE1{[ac].A.A.[dC].L.R.A.I.G.D.C.V.N.L.R.Q.K.L.L.N.[am]}|CHEM1{[c1cc(-c2ccc(C[*:2])cc2)ccc1C[*:1]]}$PEPTIDE1,CHEM1,4:R3-1:R1|PEPTIDE1,CHEM1,11:R3-1:R2$$$V2.0; SMILES CC[C@H](C)[C@@H]1NC(=O)[C@H](C)NC(=O)[C@H](CCCNC(=N)N)NC(=O)[C@H](CC(C)C)NC(=O)[C@H](NC(=O)[C@H](C)NC(=O)[C@H](C)NC(C)=O)CSCc2ccc(cc2)-c2ccc(cc2)CSC[C@@H](C(=O)N[C@H](C(=O)N[C@@H](CC(N)=O)C(=O)N[C@@H](CC(C)C)C(=O)N[C@@H](CCCNC(=N)N)C(=O)N[C@@H](CCC(N)=O)C(=O)N[C@@H](CCCCN)C(=O)N[C@@H](CC(C)C)C(=O)N[C@@H](CC(C)C)C(=O)N[C@@H](CC(N)=O)C(N)=O)C(C)C)NC(=O)[C@H](CC(=O)O)NC(=O)CNC1=O) [Noxa peptide 3]	23 nM

More lines, now with the values ahead:

Ki	Binder
22 nM	AACLRRIGDCVNLRQKLLN (HELM PEPTIDE1{[COC(=O)[*:2]].[meA].[meA].[dC].L.R.R.I.G.D.C.V.N.L.R.Q.K.L.L.N.[am]}|CHEM1{[c1cc(-c2ccc(C[*:2])cc2)ccc1C[*:1]]}$PEPTIDE1,CHEM1,4:R3-1:R1|PEPTIDE1,CHEM1,11:R3-1:R2$$$V2.0; SMILES CC[C@H](C)[C@@H]1NC(=O)[C@H](CCCNC(=N)N)NC(=O)[C@H](CCCNC(=N)N)NC(=O)[C@H](CC(C)C)NC(=O)[C@H](NC(=O)[C@H](C)N(C)C(=O)[C@H](C)N(C)C(=O)OC)CSCc2ccc(cc2)-c2ccc(cc2)CSC[C@@H](C(=O)N[C@H](C(=O)N[C@@H](CC(N)=O)C(=O)N[C@@H](CC(C)C)C(=O)N[C@@H](CCCNC(=N)N)C(=O)N[C@@H](CCC(N)=O)C(=O)N[C@@H](CCCCN)C(=O)N[C@@H](CC(C)C)C(=O)N[C@@H](CC(C)C)C(=O)N[C@@H](CC(N)=O)C(N)=O)C(C)C)NC(=O)[C@H](CC(=O)O)NC(=O)CNC1=O) [Noxa peptide 7]
22 nM	AACLRAIGDCVNLAQALLN (HELM PEPTIDE1{[COC(=O)[*:2]].[meA].[meA].[dC].L.R.A.I.G.D.C.V.N.L.A.Q.A.L.L.N.[am]}|CHEM1{[c1cc(-c2ccc(C[*:2])cc2)ccc1C[*:1]]}$PEPTIDE1,CHEM1,4:R3-1:R1|PEPTIDE1,CHEM1,11:R3-1:R2$$$V2.0; SMILES CC[C@H](C)[C@@H]1NC(=O)[C@H](C)NC(=O)[C@H](CCCNC(=N)N)NC(=O)[C@H](CC(C)C)NC(=O)[C@H](NC(=O)[C@H](C)N(C)C(=O)[C@H](C)N(C)C(=O)OC)CSCc2ccc(cc2)-c2ccc(cc2)CSC[C@@H](C(=O)N[C@H](C(=O)N[C@@H](CC(N)=O)C(=O)N[C@@H](CC(C)C)C(=O)N[C@@H](C)C(=O)N[C@@H](CCC(N)=O)C(=O)N[C@@H](C)C(=O)N[C@@H](CC(C)C)C(=O)N[C@@H](CC(C)C)C(=O)N[C@@H](CC(N)=O)C(N)=O)C(C)C)NC(=O)[C@H](CC(=O)O)NC(=O)CNC1=O) [Noxa peptide 8]
10 nM	AACLRRIGDCVNLRQKLLN (HELM PEPTIDE1{[ac].A.A.C.L.R.R.I.G.D.C.V.N.L.R.Q.K.L.L.N.[am]}|CHEM1{[c1cc(-c2ccc(C[*:2])cc2)ccc1C[*:1]]}$PEPTIDE1,CHEM1,4:R3-1:R1|PEPTIDE1,CHEM1,11:R3-1:R2$$$V2.0; SMILES CC[C@H](C)[C@@H]1NC(=O)[C@H](CCCNC(=N)N)NC(=O)[C@H](CCCNC(=N)N)NC(=O)[C@H](CC(C)C)NC(=O)[C@@H](NC(=O)[C@H](C)NC(=O)[C@H](C)NC(C)=O)CSCc2ccc(cc2)-c2ccc(cc2)CSC[C@@H](C(=O)N[C@H](C(=O)N[C@@H](CC(N)=O)C(=O)N[C@@H](CC(C)C)C(=O)N[C@@H](CCCNC(=N)N)C(=O)N[C@@H](CCC(N)=O)C(=O)N[C@@H](CCCCN)C(=O)N[C@@H](CC(C)C)C(=O)N[C@@H](CC(C)C)C(=O)N[C@@H](CC(N)=O)C(N)=O)C(C)C)NC(=O)[C@H](CC(=O)O)NC(=O)CNC1=O) [Noxa peptide 1]
